Here are results for eight molecules from patent US20260234738A1 (Regeneron, published 2026).

Where “and” joins values, the source holds several entries; their conditions need not be identical. Equal values may be shown once.

B1: mAb10986 (antibody, V domains shown)
VH: EVQLVESGGGLVQPGGSLRLSCAASEFTVSSNYMSWVRQAPGKGLEWVSVIYSGGSTFYADSVKGRFTISRDNSKNTLYLQMNSLRAEDTAVYYCARALPYGDLHFDYWGQGTLVTVSS
VL: QSVLTQPPSVSGAPGQRVTISCTGSSSNIGTGYDVHWYQQLPGTAPKLLIYGNTNRPSGVPDRFSGSKSGTSASLAITGLQAEDEADYYCQSYDSSLSDSYVFGTGTKVTVLG
B2: mAb11006 (antibody, V domains shown)
VH: EVQLVESGGGLVQPGGSLRLSCAASGFIVSRNYMSWVRQAPGKGLEWVSVIYSGGSTFYADSVKGRFTISRHNSKNTLYLQMNSLKAEDTAVYYCARELRGYFDYWGQGTLVTVSS
VL: DIQLTQSPSFLSASVGDRVTITCWASQGISSYLAWYQQKPGKAPKLLIYAASTLQSGVPSRFSGSGSGTEFTLTISSLQPEDFATYYCQLLNSYPYTFGQGTKLEIKR
B3: mAb11008 (antibody, V domains shown)
VH: EVQLVESGGGLVQPGGSLRLSCAASGFTVSSNYMTWVRQAPGKGLEWVSVIYSGGSTFYADSVKGRFTISRHNSENTLYLQMNSLRAEDTAVYYCARDLAAAGTDYWGQGALVTVSS
VL: DIQLTQSPSFLSASVGDRVTITCWASQGISSYLAWYQQKPGKAPKLLIYAASTLQSGVPSRFSGSGSGTEFTLTISSLQPDDFATYYCQHLNSYLYTFGQGTKLEIKR
B4: mAb10989 (antibody, V domains shown)
VH: QVQLVQSGAEVKKPGASVKVSCKASGYIFTGYYMHWVRQAPGQGLEWMGWINPNSGGANYAQKFQGRVTLTRDTSITTVYMELSRLRFDDTAVYYCARGSRYDWNQNNWFDPWGQGTLVTVSS
VL: QSALTQPASVSGSPGQSITISCTGTSSDVGTYNYVSWYQQHPGKAPKLMIFDVSNRPSGVSDRFSGSKSGNTASLTISGLQAEDEADYYCSSFTTSSTVVFGGGTKLTVLG
B5: mAb10985 (antibody, V domains shown)
VH: EVQLVESGGGLVQPGRSLRLSCAASGFTFDDYAMHWVRQAPGKGLEWVSGISWNRGSIGYADSVKGRFTISRDNAKNSLYLQMSSLRAEDTALYYCAKDGERWDSVVVPSARNGMDVWGQGTTVTVSS
VL: QSVLTQPPSVSGAPGQRVTISCTGSSSNIGAGYDVHWYQQLPGTAPKLLIYGNSNRPSGVPDRFSGSKSGTSASLAITGLQAEDEADYYCQSYDSSLSGSYVFGTGTKVTVLG
B6: mAb10986 (antibody, V domains shown)
VH: EVQLVESGGGLVQPGGSLRLSCAASEFTVSSNYMSWVRQAPGKGLEWVSVIYSGGSTFYADSVKGRFTISRDNSKNTLYLQMNSLRAEDTAVYYCARALPYGDLHFDYWGQGTLVTVSS
VL: QSVLTQPPSVSGAPGQRVTISCTGSSSNIGTGYDVHWYQQLPGTAPKLLIYGNTNRPSGVPDRFSGSKSGTSASLAITGLQAEDEADYYCQSYDSSLSDSYVFGTGTKVTVLG
B7: mAb11010 (antibody, V domains shown)
VH: QVQLVESGGGVVQPGRSLRLSCAASGFTFSSYGMHWVRQAPGKGLEWVAVISYDGSYKYYADSVKGRFTISRDNSKNTLYLQMNSLRAEDTAVYYCAIDGGTVTTIFDYWGQGTLVTVSS
VL: not shown
B8: mAb10998 (antibody, V domains shown)
VH: EVQLVESGGGLVHPGGSLRLSCAASGLTVSSNYMSWVRQAPGKGLEWVSVIYSGGSTYYADSVKGRFTISRHNSKNTLFLQMNSLRAEDTAVYYCARDRPITGTTLDVWGQGTTVTVSS
VL: DIQMTQSPSSLFASVGDRVTITCRASQSISSYLNWYQQKPGKAPKLLIYAASSLQSGVPSRFSGSGSGTDFTLTISSLQPEDFAFYYCQQTYSTPPITFGQGTRLEIKR

For orientation: IC50 means the concentration at which inhibition is half-maximal.

For the first assay, the target named is Bt-SARS-CoV-2 Spike Protein (RBD) (R319-F541).mFc (SARS-CoV-2). Put plainly: Luminex beads, supernatant.
B1 gave an MFI of 15900 MFI.

The next assay concerns the target SARS-CoV-2 Spike Protein (RBD) (R319-F541).mFc (SARS-CoV-2). Put plainly: Luminex beads, supernatant.
Turning to B1, the MFI is 28400 MFI.

The next assay addresses SARS-COV-2 Spike protein receptor binding domain (amino acids Arg319-Phe541) expressed with the Fc p (SARS-CoV-2).
Assay: not given
In the case of B2, the IC50 came to 0.22 nM.
Still for that read-out and setting: in the case of B3 it was 1.49 nM; in that of B4, 0.0591 nM and 0.0428 nM; in that of B5, 0.0696 nM and 0.0411 nM.
In the case of B6, the IC50 is 0.0754 nM. This lies in the picomolar range.
On the same count and under the same terms, as for B7, the figure is 0.147 nM.
For B8, the IC50 turned out to be 4.3 nM.
